Data from patent US20020082202A1 (GlaxoSmithKline, published 2002).
No end group written: not given here.

Biological target: T1, HFGAN72 receptor (human, UniProt O43613 1-425)
T1 sequence (looked up): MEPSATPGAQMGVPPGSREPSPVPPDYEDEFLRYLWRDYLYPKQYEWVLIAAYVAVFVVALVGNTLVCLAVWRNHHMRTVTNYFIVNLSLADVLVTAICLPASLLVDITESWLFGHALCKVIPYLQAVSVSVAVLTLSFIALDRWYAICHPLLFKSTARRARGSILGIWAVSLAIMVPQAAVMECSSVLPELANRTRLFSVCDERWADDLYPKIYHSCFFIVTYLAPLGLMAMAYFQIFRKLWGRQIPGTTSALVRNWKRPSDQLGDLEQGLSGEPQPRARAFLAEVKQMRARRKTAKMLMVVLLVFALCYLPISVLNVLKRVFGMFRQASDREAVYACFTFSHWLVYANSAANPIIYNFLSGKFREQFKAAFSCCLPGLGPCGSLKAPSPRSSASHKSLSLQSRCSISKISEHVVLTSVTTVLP
Experiment: cell-based or functional assay

Q: For QPLPDCCRQKTCSCRLYELLHGAGNHAAGILTL (cysteine pairing not given here; also: N-terminus blocked) [Lig 72A (HFGAN72 receptor ligand)], which “Intracellular calcium levels in Fura-loaded 293 cells transfected with the receptor; EC50” value is on record?
A: ~0.05 µg/mL
